Results taken from paper PMC11321632 (2024).

Target: Lysosomal Ras-associated protein 7a (RAB7A), recombinant mouse protein (mouse, UniProt P51150 1-207)
Test: SPR

Sequence of Lysosomal Ras-associated protein 7a (RAB7A), recombinant mouse protein (P51150 whole entry): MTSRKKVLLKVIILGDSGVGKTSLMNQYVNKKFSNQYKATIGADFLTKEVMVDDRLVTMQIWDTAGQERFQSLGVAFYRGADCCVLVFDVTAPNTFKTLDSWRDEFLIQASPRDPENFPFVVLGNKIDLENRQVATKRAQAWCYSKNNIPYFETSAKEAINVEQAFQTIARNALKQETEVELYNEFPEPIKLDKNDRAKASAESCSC

B1: Sirtuin 5 (SIRT5), recombinant mouse protein (enzyme)
chain: SSNMADFRKCFANAKHIAIISGAGVSAESGVPTFRGAGGYWRKWQAQDLATPQAFARNPSQVWEFYHYRREVMRSKEPNPGHLAIAQCEARLRDQGRRVVVITQNIDELHRKAGTKNLLEIHGTLFKTRCTSCGTVAENYRSPICPALAGKGAPEPETQDARIPVDKLPRCEEAGCGGLLRPHVVWFGENLDPAILEEVDRELALCDLCLVVGTSSVVYPAAMFAPQVASRGVPVAEFNMETTPATDRFRFHFPGPCGKTLPEALAPHETERTS
- Kd: 31.8 nM
